B1: Protein S100-A4 (Mus musculus), P07091 (parent)
chain: MARPLEEALDVIVSTFHKYSGKEGDKFKLNKTELKELLTRELPSFLGKRTDEAAFQKVMSNLDSNRDNEVDFQEYCVFLSCIAMMCNEFFEGCPDKEPRKK
partner: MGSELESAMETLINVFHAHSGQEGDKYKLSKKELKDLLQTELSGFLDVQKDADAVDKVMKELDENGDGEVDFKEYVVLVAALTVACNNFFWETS

Variants of B1 are the subject of the assay. Conditions: with S100a1, P56565.
Turning to F72A, the “effect of a mutation on the interaction” value is given as “disrupting interaction”.
